The target of this experiment is IGF-1 receptor (UniProt P08069). In words: cell-based or functional assay.

1 substance from US20220009991A1 can be followed below.

Sequence of UniProt P08069 (P08069 31-1367): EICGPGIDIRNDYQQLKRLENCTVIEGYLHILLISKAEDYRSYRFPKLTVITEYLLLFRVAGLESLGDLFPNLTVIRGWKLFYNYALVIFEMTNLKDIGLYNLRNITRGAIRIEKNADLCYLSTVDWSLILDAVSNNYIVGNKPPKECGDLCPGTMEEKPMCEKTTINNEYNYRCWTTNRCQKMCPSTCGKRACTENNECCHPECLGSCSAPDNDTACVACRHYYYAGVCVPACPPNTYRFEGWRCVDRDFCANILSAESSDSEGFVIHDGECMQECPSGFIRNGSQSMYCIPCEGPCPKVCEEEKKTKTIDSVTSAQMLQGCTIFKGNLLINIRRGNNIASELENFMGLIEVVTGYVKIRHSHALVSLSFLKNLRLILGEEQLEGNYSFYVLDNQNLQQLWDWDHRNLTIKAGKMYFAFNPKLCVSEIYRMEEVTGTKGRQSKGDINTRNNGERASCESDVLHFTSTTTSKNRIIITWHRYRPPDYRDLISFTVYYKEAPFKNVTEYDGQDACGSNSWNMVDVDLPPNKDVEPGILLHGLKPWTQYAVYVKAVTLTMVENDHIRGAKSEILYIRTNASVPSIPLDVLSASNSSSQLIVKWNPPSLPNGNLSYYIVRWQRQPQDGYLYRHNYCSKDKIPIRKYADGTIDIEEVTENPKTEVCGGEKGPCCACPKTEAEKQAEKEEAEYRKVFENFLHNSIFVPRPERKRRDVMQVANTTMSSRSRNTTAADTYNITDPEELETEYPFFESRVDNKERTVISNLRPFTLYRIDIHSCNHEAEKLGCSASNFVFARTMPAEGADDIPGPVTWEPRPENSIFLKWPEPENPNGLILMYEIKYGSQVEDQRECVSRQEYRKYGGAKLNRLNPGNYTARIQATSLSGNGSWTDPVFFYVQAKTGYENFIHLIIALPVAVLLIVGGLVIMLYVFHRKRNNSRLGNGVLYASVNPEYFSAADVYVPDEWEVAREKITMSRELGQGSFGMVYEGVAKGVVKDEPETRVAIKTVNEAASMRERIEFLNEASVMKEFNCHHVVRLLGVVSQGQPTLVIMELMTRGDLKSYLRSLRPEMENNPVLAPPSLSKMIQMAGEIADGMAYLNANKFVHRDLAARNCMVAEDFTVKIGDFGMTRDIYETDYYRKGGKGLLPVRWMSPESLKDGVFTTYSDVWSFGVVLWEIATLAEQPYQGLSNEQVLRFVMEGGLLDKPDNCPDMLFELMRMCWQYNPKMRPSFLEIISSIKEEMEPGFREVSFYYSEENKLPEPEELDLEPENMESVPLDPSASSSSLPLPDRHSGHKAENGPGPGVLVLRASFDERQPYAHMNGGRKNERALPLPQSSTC

Consider IGF-1 (LR3) (ligand), for which the pAKT EC50 (concentration needed to achieve the half maximal level of pAKT signaling), healthy iPSC-derived cardiomyocytes, pAKT ELISA amounted to 0.73.
